Reference: patent US20210405026A1 (CENTRE NATIONAL DE LA RECHERCHE SCIENTIFIQUE, published 2021)

How the values were obtained:
[1] = molecular target: T1, recombinant human CD32a (human, UniProt P12318 34-217); experiment: ELISA on recombinant human CD32a, hybridoma screening
T1 sequence: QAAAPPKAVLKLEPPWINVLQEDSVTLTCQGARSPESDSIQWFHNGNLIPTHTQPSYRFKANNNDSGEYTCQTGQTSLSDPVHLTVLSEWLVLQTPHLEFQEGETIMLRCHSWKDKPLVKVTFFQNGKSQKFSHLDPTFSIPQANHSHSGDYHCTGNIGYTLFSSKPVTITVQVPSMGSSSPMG
Source text: (§1) In order to develop a specific murine monoclonal antibody against Human CD32a using a peptide antigen […] (SEQ ID NO: 40), different criteria were taken into account when designing the peptide: (1) The peptide must not include residue # 167 submitted to a strong polymorphism; (2) The peptide should be specific for CD32a vs CD32b as much as possible to avoid cross-reactivity of anti-CD32a antibody with human CD32b. Thus, a first step was the selection, design and synthesis of a relevant peptide. In order to enhance the immune response, the peptide to carrier conjugation technique (KLH) was used. The peptide thus produced was used in the immunization of 5 mice with an optimized protocol of 45 to 74 days (4-6 injections). The immune response was monitored by bleeding and titration tests (ELISA against the peptide and recombinant human CD32a and CD32b in parallel). Following the results of these tests, the spleen cells from the best mouse were fused with a mouse myeloma cell line. The culture of the hybridomas obtained was carried out in selective medium before the screens for the selection at the polyclonal stage of specific hybridomas against the peptide in ELISA (10× 96-well plates). Further screening for clones positive against recombinant human CD32a and CD32b was performed in parallel. […]

[2] = molecular target: T2, recombinant human CD32b (human, UniProt P31994 46-217); experiment: ELISA on recombinant human CD32b, hybridoma screening
T2 sequence: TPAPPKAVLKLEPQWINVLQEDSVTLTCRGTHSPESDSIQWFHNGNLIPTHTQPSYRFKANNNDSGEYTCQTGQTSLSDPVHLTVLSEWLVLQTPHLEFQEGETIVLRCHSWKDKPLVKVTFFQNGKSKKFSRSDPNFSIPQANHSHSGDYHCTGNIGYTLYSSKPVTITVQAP
Source text: as §1

B1: murine monoclonal anti-human CD32a antibody from hybridoma 8E2 (antibody, V domains shown)
VH: EVKLQESGPSLVQPGGSMNLSCVASGFTFSTHWMSWVRQSPEKGLEWIAEIRLKTDNYATHYAESVKGLFTISRDDSKSRLYLQMKSLRTEDSGIYYCTTHFAYWGQGTLV
VL: DVVMAQSPLSLPVSLGDQASISCRSSQSLVDSHGNTYLHWYLQKPGQSPKLLIYKVANRFSGVPDRFSGSGSGTDFTLKISRVEAEDLGVYFCSQSTHVPPVTFGAGTKLELK
notes: Tested as hybridoma supernatant in the ELISA screens
binding result [1]: binds
binding result [2]: no binding
